From patent publication US20160279215A1, “NOVEL PEPTIDES AND COMBINATION OF PEPTIDES FOR USE IN IMMUNOTHERAPY AGAINST VARIOUS TUMORS” (immatics biotechnologies GmbH, priority 2015, published 2016)
One block for each molecule: values may come before it.

Legend:
[1] = tested on: CD8+ T cells of healthy HLA-A*02 donors; assay: In vitro immunogenicity: T-cell priming with aAPCs loaded with peptide/MHC and anti-CD28, pMHC multimer readout; type: cell-based, human; conditions: for Wells positive [%]: in vitro immunogenicity, HLA-A*02 restricted peptides, percentage of positive wells among evaluable; for donors: percentage of positive donors; for donors / wells: in vitro immunogenicity of HLA class I peptides; for wells: percentage of positive wells
Text: In order to obtain information regarding the immunogenicity of the TUMAPs of the present invention, the inventors performed investigations using an in vitro T-cell priming assay based on repeated stimulations of CD8+ T cells with artificial antigen presenting cells (aAPCs) loaded with peptide/MHC complexes and anti-CD28 antibody.
In order to perform in vitro stimulations by artificial antigen presenting cells loaded with peptide-MHC complex (pMHC) and anti-CD28 antibody, the inventors first isolated CD8+ T cells from fresh HLA-A*02 leukapheresis products via positive selection using CD8 microbeads (Miltenyi Biotec, Bergisch-Gladbach, Germany) of healthy donors obtained from the University clinics Mannheim, Germany, after informed consent. PBMCs and isolated CD8+ lymphocytes were incubated in T-cell medium (TCM) until use consisting of RPMI-Glutamax (Invitrogen, Karlsruhe, Germany) supplemented with 10% heat inactivated human AB serum (PAN-Biotech, Aidenbach, Germany), 100 U/ml Penicillin/100 μg/ml Streptomycin (Cambrex, Cologne, Germany), 1 mM sodium pyruvate (CC Pro, Oberdorla, Germany), 20 μg/ml Gentamycin (Cambrex). 2.5 ng/ml IL-7 (PromoCell, Heidelberg, Germany) and 10 U/ml IL-2 (Novartis Pharma, Nürnberg, Germany) were also added to the TCM at this step. Generation of pMHC/anti-CD28 coated beads, T-cell stimulations and readout was performed in a highly defined in vitro system using four different pMHC molecules per stimulation condition and 8 different pMHC molecules per readout condition.
The purified co-stimulatory mouse IgG2a anti human CD28 Ab 9.3 (Jung et al., 1987) was chemically biotinylated using Sulfo-N-hydroxysuccinimidobiotin as recommended by the manufacturer (Perbio, Bonn, Germany). Beads used were 5.6 μm diameter streptavidin coated polystyrene particles (Bangs Laboratories, Illinois, USA).
pMHC used for positive and negative control stimulations were A*0201/MLA-001 (peptide […] (SEQ ID NO. 289) from modified Melan-A/MART-1) and A*0201/DDX5-001 ([…] from DDX5, SEQ ID NO. 290), respectively.
800.000 beads/200 μl were coated in 96-well plates in the presence of 4×12.5 ng different biotin-pMHC, washed and 600 ng biotin anti-CD28 were added subsequently in a volume of 200 μl. Stimulations were initiated in 96-well plates by co-incubating […] CD8+ T cells with 2×10^5 washed coated beads in 200 μl TCM supplemented with 5 ng/ml IL-12 (PromoCell) for 3 days at 37° C. Half of the medium was then exchanged by fresh TCM supplemented with 80 U/ml IL-2 and incubating was continued for 4 days at 37° C. This stimulation cycle was performed for a total of three times. For the pMHC multimer readout using 8 different pMHC molecules per condition, a two-dimensional combinatorial coding approach was used as previously described (Andersen et al., 2012) with minor modifications encompassing coupling to 5 different fluorochromes. Finally, multimeric analyses were performed by staining the cells with Live/dead near IR dye (Invitrogen, Karlsruhe, Germany), CD8-FITC antibody clone SK1 (BD, Heidelberg, Germany) and fluorescent pMHC multimers. For analysis, a BD LSRII SORP cytometer equipped with appropriate lasers and filters was used. Peptide specific cells were calculated as percentage of total CD8+ cells. Evaluation of multimeric analysis was done using the FlowJo software (Tree Star, Oreg., USA). In vitro priming of specific multimer+ CD8+ lymphocytes was detected by comparing to negative control stimulations.
Exemplary flow cytometry results after TUMAP-specific multimer staining for 15 peptides of the invention are shown in FIGS. 3 and 6 together with corresponding negative controls.

[2] = molecular target: T1, HLA-A*02:01 (Homo sapiens, UniProt P04439, D140Y/D185E/D98H/E176V/E277Q/G131W/G231S/I119V/I121R/I166T/I218V/L300P/L318F/N151K/N90K/P208A/P217A/Q86G/Q94H/R138H/R169H/T345S); assay: MHC binding assay: UV-ligand exchange with β2m ELISA (peptide exchange yield); conditions: binding to HLA-A*02:01 evaluated by peptide exchange yield (UV-ligand exchange, β2m ELISA)
T1 construct: made in house
Procedure, shortened: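 Exchange yield, UV-ligand exchange: 100-fold diluted samples on streptavidin plates, 1 h at 37 °C; HRP anti-β2m 1 h at 37 °C; TMB read at 450 nm.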

[3] = molecular target: T2, HLA-A*02:01 (human); assay: UV ligand-exchange ELISA (anti-b2m); ++ = exchange yield >=20%
T2 construct: MHC monomers captured on streptavidin plates; the UV-sensitive peptide is cleaved and exchanged with the test peptide; also called peptide-receptive MHC molecules; MHC class I
Text: Candidate peptides for T cell based therapies according to the present invention were further tested for their MHC binding capacity (affinity). The individual peptide-MHC complexes were produced by UV-ligand exchange, where a UV-sensitive peptide is cleaved upon UV-irradiation, and exchanged with the peptide of interest as analyzed. Only peptide candidates that can effectively bind and stabilize the peptide-receptive MHC molecules prevent dissociation of the MHC complexes. To determine the yield of the exchange reaction, an ELISA was performed based on the detection of the light chain (β2m) of stabilized MHC complexes. The assay was performed as generally described in Rodenko et al. (Rodenko et al., 2006).
96 well MAXISorp plates (NUNC) were coated over night with 2 ug/ml streptavidin in PBS at room temperature, washed 4× and blocked for 1 h at 37° C. in 2% BSA containing blocking buffer. Refolded HLA-A*02:01/MLA-001 monomers served as standards, covering the range of 15-500 ng/ml. Peptide-MHC monomers of the UV-exchange reaction were diluted 100 fold in blocking buffer. Samples were incubated for 1 h at 37° C., washed four times, incubated with 2 ug/ml HRP conjugated anti-β2m for 1 h at 37° C., washed again and detected with TMB solution that is stopped with […]. Absorption was measured at 450 nm. Candidate peptides that show a high exchange yield (preferably higher than 50%, most preferred higher than 75%) are generally preferred for a generation and production of antibodies or fragments thereof, and/or T cell receptors or fragments thereof, as they show sufficient avidity to the MHC molecules and prevent dissociation of the MHC complexes.

Molecule: 4 (VLFGELPAL; listed as Homo sapiens) [compound 4]
Wells positive [%] [1]: + (<20% = +)
Peptide exchange [2]: +++ (≧50 = +++)

Molecule: 7 (ALLQALMEL; listed as Homo sapiens) [compound 7]
Wells positive [%] [1]: ++ (20%-49% = ++)
Peptide exchange [2]: +++ (≧50 = +++)

Molecule: 9 (SLITGQDLLSV; listed as Homo sapiens) [compound 9]
Wells positive [%] [1]: + (<20% = +)
Peptide exchange [2]: +++ (≧50 = +++)

Molecule: 11 (LLDPKTIFL; listed as Homo sapiens) [compound 11]
Wells positive [%] [1]: ++ (20%-49% = ++)
Peptide exchange [2]: +++ (≧50 = +++)

Molecule: 14 (YTFSGDVQL; listed as Homo sapiens) [compound 14]
Wells positive [%] [1]: + (<20% = +)
Peptide exchange [2]: +++ (≧50 = +++)

Molecule: 17 (GLLPSAESIKL; listed as Homo sapiens) [compound 17]
Wells positive [%] [1]: + (<20% = +)
Peptide exchange [2]: ++++ (≧75% = ++++)

Molecule: 27 (GLLGKVTSV; listed as Homo sapiens) [compound 27]
Wells positive [%] [1]: + (<20% = +)
Peptide exchange [2]: +++ (≧50 = +++)

Molecule: 29 (KMISAIPTL; listed as Homo sapiens) [compound 29]
Wells positive [%] [1]: + (<20% = +)
Peptide exchange [2]: ++ (≧20% = ++)

Molecule: 287 (KIQEILTQV; listed as Homo sapiens) [compound 287]
donors [1]: +++ (50%-69% = +++)
wells [1]: + (<20% = +)

Molecule: 288 (SLYKGLLSV; listed as Homo sapiens) [compound 288]
donors [1]: ++++ (>= 70% = ++++)
wells [1]: ++ (21%-49% = ++)

B1: ALDTTRHEL (peptide)
peptide: ALDTTRHEL
peptide exchange yield [3]: 20 to 50%

B2: AMLASQTEA (peptide)
peptide: AMLASQTEA
peptide exchange yield [3]: 20 to 50%

B3: RVLPGQAVTGV (peptide)
peptide: RVLPGQAVTGV
peptide exchange yield [3]: 20 to 50%

B4: YLADTVQKL (peptide)
peptide: YLADTVQKL
peptide exchange yield [3]: 20 to 50%

B5: LLPSIFLMV (peptide)
peptide: LLPSIFLMV
peptide exchange yield [3]: 20 to 50%

B6: RLYGYFHDA (peptide)
peptide: RLYGYFHDA
peptide exchange yield [3]: 20 to 50%

B7: VLLGSVVIFA (peptide)
peptide: VLLGSVVIFA
peptide exchange yield [3]: 20 to 50%

More lines, main results first:

Peptide exchange [2]: ++ (≧20% = ++)
Molecule: 35 (VIIKGLEEI; listed as Homo sapiens) [compound 35]
Wells positive [%] [1]: + (<20% = +)

Peptide exchange [2]: +++ (≧50 = +++)
Molecule: 48 (KISDFGLATV; listed as Homo sapiens) [compound 48]
Wells positive [%] [1]: ++ (20%-49% = ++)

Peptide exchange [2]: +++ (≧50 = +++)
Molecule: 50 (ILLSVLHQL; listed as Homo sapiens) [compound 50]
Wells positive [%] [1]: + (<20% = +)

Peptide exchange [2]: ++ (≧20% = ++)
Molecule: 66 (AMFPDTIPRV; listed as Homo sapiens) [compound 66]
Wells positive [%] [1]: + (<20% = +)

Peptide exchange [2]: +++ (≧50 = +++)
Molecule: 77 (ALYGNVQQV; listed as Homo sapiens) [compound 77]
Wells positive [%] [1]: + (<20% = +)

Peptide exchange [2]: +++ (≧50 = +++)
Molecule: 89 (SLAETIFIV; listed as Homo sapiens) [compound 89]
Wells positive [%] [1]: + (<20% = +)

Peptide exchange [2]: ++++ (≧75% = ++++)
Molecule: 92 (RLFEEVLGV; listed as Homo sapiens) [compound 92]
Wells positive [%] [1]: ++ (20%-49% = ++)

Peptide exchange [2]: +++ (≧50 = +++)
Molecule: 97 (KLFEKSTGL; listed as Homo sapiens) [compound 97]
Wells positive [%] [1]: + (<20% = +)

Peptide exchange [2]: +++ (≧50 = +++)
Molecule: 101 (SLLEVNEASSV; listed as Homo sapiens) [compound 101]
Wells positive [%] [1]: + (<20% = +)

Peptide exchange [2]: +++ (≧50 = +++)
Molecule: 102 (GLYPVTLVGV; listed as Homo sapiens) [compound 102]
Wells positive [%] [1]: + (<20% = +)

Peptide exchange [2]: ++ (≧20% = ++)
Molecule: 117 (TLLEGISRA; listed as Homo sapiens) [compound 117]
Wells positive [%] [1]: ++ (20%-49% = ++)

Peptide exchange [2]: ++ (≧20% = ++)
Molecule: 121 (ALYVQAPTV; listed as Homo sapiens) [compound 121]
Wells positive [%] [1]: + (<20% = +)

Peptide exchange [2]: ++ (≧20% = ++)
Molecule: 157 (ILQDGQFLV; listed as Homo sapiens) [compound 157]
Wells positive [%] [1]: + (<20% = +)

Peptide exchange [2]: +++ (≧50 = +++)
Molecule: 166 (LLGDSSFFL; listed as Homo sapiens) [compound 166]
Wells positive [%] [1]: ++ (20%-49% = ++)

Peptide exchange [2]: +++ (≧50 = +++)
Molecule: 233 (SLFESLEYL; listed as Homo sapiens) [compound 233]
Wells positive [%] [1]: + (<20% = +)

Peptide exchange [2]: ++++ (≧75% = ++++)
Molecule: 234 (VLLNEILEQV; listed as Homo sapiens) [compound 234]
Wells positive [%] [1]: ++ (20%-49% = ++)

Peptide exchange [2]: +++ (≧50 = +++)
Molecule: 236 (KMSELQTYV; listed as Homo sapiens) [compound 236]
Wells positive [%] [1]: + (<20% = +)

Peptide exchange [2]: +++ (≧50 = +++)
Molecule: 242 (KLQEEIPVL; listed as Homo sapiens) [compound 242]
Wells positive [%] [1]: + (<20% = +)

Peptide exchange [2]: +++ (≧50 = +++)
Molecule: 246 (ALAGIVTNV; listed as Homo sapiens) [compound 246]
Wells positive [%] [1]: + (<20% = +)

Peptide exchange [2]: +++ (≧50 = +++)
Molecule: 248 (VLMQDSRLYL; listed as Homo sapiens) [compound 248]
Wells positive [%] [1]: ++ (20%-49% = ++)
